Test results taken from publication PMC12370991, “Visualizing acyl carrier protein interactions within a crosslinked type I polyketide synthase” (Nature Communications, 2025).

Columns and labels:
E. coli FabF (KS) = biological target: T1, E. coli FabF (KS) (E. coli, UniProt P0AAI5 1-413); test: cross-linking; conditions: both partners purified
T1 construct: FabF, type II FAS ketosynthase, E. coli
T1 sequence (looked up): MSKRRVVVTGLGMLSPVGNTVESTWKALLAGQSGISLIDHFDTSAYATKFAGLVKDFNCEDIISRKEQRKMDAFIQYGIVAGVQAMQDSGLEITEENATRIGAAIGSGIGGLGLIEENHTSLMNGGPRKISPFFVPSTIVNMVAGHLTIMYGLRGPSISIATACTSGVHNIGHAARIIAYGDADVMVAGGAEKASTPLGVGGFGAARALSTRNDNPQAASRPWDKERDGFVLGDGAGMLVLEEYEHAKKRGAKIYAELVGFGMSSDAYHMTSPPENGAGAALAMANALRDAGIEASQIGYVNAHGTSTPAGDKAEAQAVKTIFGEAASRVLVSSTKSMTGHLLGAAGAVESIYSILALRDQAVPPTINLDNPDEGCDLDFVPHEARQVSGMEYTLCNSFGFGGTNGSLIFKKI

E. coli FabA (DH) = biological target: T2, E. coli FabA (DH) (E. coli, UniProt P0A6Q3 2-172); test: cross-linking; conditions: both partners purified
T2 construct: FabA, type II FAS dehydratase, E. coli
T2 sequence: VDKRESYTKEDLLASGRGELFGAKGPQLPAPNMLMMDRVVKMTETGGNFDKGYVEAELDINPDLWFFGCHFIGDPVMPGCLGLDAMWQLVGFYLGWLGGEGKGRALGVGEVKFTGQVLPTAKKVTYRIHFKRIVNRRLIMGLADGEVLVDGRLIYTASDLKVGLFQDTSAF

binding result (E. coli FabF (KS)): binds
binding result (E. coli FabA (DH)): binds
B1: E. coli crypto-AcpP (acyl carrier protein of the type II FAS loaded with a crosslinker) (natural protein)
chain: MSTIEERVKKIIGEQLGVKQEEVTNNASFVEDLGADSLDTVELVMALEEEFDTEIPDEEAEKITTVQAAIDYINGHQA
modifications: crosslinker 2, 3, 5, 6 or 8 loaded chemoenzymatically (crypto-AcpP)
notes: AcpP, acyl carrier protein of the type II fatty acid synthase, E. coli; also called E. coli ACP; source: crypto-AcpP purified by SEC
